T1: human FcγRIIaH extracellular domain, C-terminal His-tag (human, UniProt P12318 34-217)
T1 construct: Soluble extracellular domain expressed in FreeStyle 293 cells; also called FcgRIIaH; human FcγRIIa (type H); not shown: His-tag added to the C-terminus
T1 sequence: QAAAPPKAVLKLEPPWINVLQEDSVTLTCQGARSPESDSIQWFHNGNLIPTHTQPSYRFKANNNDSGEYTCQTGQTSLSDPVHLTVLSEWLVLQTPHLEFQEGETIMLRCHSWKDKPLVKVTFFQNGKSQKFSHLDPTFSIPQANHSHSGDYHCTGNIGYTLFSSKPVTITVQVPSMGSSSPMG

T2: human FcγRIIaR extracellular domain, C-terminal His-tag (human, UniProt P12318 34-217)
T2 construct: Soluble extracellular domain expressed in FreeStyle 293 cells; also called FcgRIIaR; human FcγRIIa (type R); not shown: His-tag added to the C-terminus
T2 chain: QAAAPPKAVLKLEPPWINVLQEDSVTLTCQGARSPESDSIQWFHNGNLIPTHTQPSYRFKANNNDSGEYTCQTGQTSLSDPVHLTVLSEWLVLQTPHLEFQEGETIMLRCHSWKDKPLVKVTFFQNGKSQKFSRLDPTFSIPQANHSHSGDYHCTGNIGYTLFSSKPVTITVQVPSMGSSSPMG

T3: human FcγRIIb extracellular domain, C-terminal His-tag (human, UniProt P31994 43-217)
T3 construct: Soluble extracellular domain expressed in FreeStyle 293 cells; also called FcgRIIb; not shown: His-tag added to the C-terminus
T3 sequence: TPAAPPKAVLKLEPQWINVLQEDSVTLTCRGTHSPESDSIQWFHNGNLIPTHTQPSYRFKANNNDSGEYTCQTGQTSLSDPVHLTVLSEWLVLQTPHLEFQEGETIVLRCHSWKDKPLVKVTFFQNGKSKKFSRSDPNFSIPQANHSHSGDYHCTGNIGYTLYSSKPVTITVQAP


Assays:
[1] = molecular target: T1, human FcγRIIaH extracellular domain, …; test: SPR (BIACORE); KD of SG1 divided by KD of the variant
Method: (§1) The kinetic analysis of interactions between these antibodies and FcγR was carried out using BIACORE® T200 or BIACORE® 4000 (GE Healthcare). HBS-EP+ (GE Healthcare) was used as the running buffer, and the measurement temperature was set to 25° C. A chip produced by immobilizing Protein A. Protein A/G or mouse anti-human IgG kappa light chain (BD Biosciences) onto a Series S Sensor Chip CM4 or CM5 (GE Healthcare) by the amine-coupling method was used. […] After the measurement, the antibody captured on the chip was washed off by allowing reaction with 10 mM glycine-HCl, pH1.5 and 25 mM NaOH so that the chip was regenerated and used repeatedly. The sensorgrams obtained as measurement results were analyzed by the 1:1 Langmuir binding model using the BIACORE® Evaluation Software to calculate the binding rate constant ka (L/mol/s) and dissociation rate constant kd (l/s), and the dissociation constant KD (mol/L) was calculated from these values. […] Regarding such interactions, KD values were calculated using the following 1:1 binding model described in BIACORE® T100 Software Handbook BR1006-48 Edition AE.
(§2) Furthermore, the substitutions used in Example 29 for improving antibody half-life and reducing binding to rheumatoid factor were introduced into human FcγRIIb-enhanced Fc variants and their affinity against human FcγRs were analyzed (Table 29). In this SPR analysis, all the data were obtained using mouse anti-human IgG kappa light chain for capturing the antibodies of interest.

[2] = molecular target: T2, human FcγRIIaR extracellular domain, …; test: as above
Method: as §1, §2

[3] = molecular target: T3, human FcγRIIb extracellular domain, …; test: as above
Method: as §1, §2

[4] = molecular target: T4, human FcγRIIIaV extracellular domain, C-terminal His-tag (human, UniProt P08637 17-208); test: as above
T4 construct: Soluble extracellular domain expressed in FreeStyle 293 cells; also called FcgRIIIaV; not shown: His-tag added to the C-terminus
Method: as §1, §2

[5] = molecular target: T1, human FcγRIIaH extracellular domain, …; test: SPR (BIACORE), antibody captured by mouse anti-human IgG kappa light chain, FcgR extracellular domain as analyte, 25 C
Method: as §1, §2

[6] = molecular target: T2, human FcγRIIaR extracellular domain, …; test: as above
Method: as §1, §2

[7] = molecular target: T3, human FcγRIIb extracellular domain, …; test: as above
Method: as §1, §2

[8] = molecular target: T4, human FcγRIIIaV extracellular domain, …; test: as above
Method: as §1, §2

T4 sequence (P08637 17-208 F176V): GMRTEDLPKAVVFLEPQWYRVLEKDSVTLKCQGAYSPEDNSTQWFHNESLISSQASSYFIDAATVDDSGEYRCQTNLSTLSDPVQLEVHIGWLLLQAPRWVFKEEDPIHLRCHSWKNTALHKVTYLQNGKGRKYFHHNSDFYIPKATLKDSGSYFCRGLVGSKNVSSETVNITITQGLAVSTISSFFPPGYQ

Row | Binder | KD fold for humanFcgRs (SG1 = 1) [1] [fold] | KD fold for humanFcgRs (SG1 = 1) [2] [fold] | KD fold for humanFcgRs (SG1 = 1) [3] [fold] | KD fold for humanFcgRs (SG1 = 1) [4] [fold] | Kd [5] [µM] | Kd [6] [µM] | Kd [7] [µM] | Kd [8] [µM]
1 | MS103240H795-TT90/M103202L1045-SK1 (antibody) heavy: QVQLVESGGGLVQPGGSLRLSCAVSGIDLSHDDISWVRQAPGKGLEWVSIISYAGSTYYASWAKGRLTISKDTSKNQVVLTMTNMDPVDTATYYCARGVPAYSHGGDLWGQGTLVTVSSASTKGPSVFPLAPSSKSTSGGTAALGCLVKDYFPEPVTVSWNSGALTSGVHTFPAVLQSSGLYSLSSVVTVPSSSLGTQTYICNVNHKPSNTKVDKKVEPKSCDKTHTCPPCPAPEYLGGDSVFLFPPKPKDVLMISRTPEVTCVVIDVSHEDPEVKFNWYVDGVEVHNAKTKPREEQYNSTYRVVSVLPVLHRDWLNGKEYKCKVSNKALPKPIEKTISKAKGQRREPQVYTLPPSREEMTKNQVSLTCLVKGFYPSDIAVEWESNGQPENNYKTTPPVLDSDGSFFLYSKLTVDKSRWQQGNVFSCSVMHEALHAHYTRKELSLSP light: DIVMTQSPATLSLSPGERATLSCTTSQSVYHENWLSWFQQKPGQPPKLLIYWASTLAYGVPSRFSGSGSGTDFTLTISSLQPEDAATYYCAGGYGGGRYAFGQGTKVEIKRTVAAPSVFIFPPSDEQLKSGTASVVCLLNNFYPREAKVQWKVDNALQSGNSQESVTEQDSKDSTYSLSSTLTLSKADYEKHKVYACEVTHQGLSSPVTKSFNRGEC | 0.033 | 0.05 | 15.7 | 0.002 | 29 | 25 | 0.3 | 360
2 | MS103240H795-TT91/M103202L1045-SK1 (antibody) heavy: QVQLVESGGGLVQPGGSLRLSCAVSGIDLSHDDISWVRQAPGKGLEWVSIISYAGSTYYASWAKGRLTISKDTSKNQVVLTMTNMDPVDTATYYCARGVPAYSHGGDLWGQGTLVTVSSASTKGPSVFPLAPSSKSTSGGTAALGCLVKDYFPEPVTVSWNSGALTSGVHTFPAVLQSSGLYSLSSVVTVPSSSLGTQTYICNVNHKPSNTKVDKKVEPKSCDKTHTCPPCPAPEYLGGDSVFLFPPKPKDVLMISRTPEVTCVVIDVSHEDPEVKFNWYVDGVEVHNAKTKPREEQYNSTYRVVSVLPVLHRDWLNGKEYKCKVSNKALPKPIEKTISKAKGQRREPQVYTLPPSREEMTKNQVSLTCLVKGFYPSDIAVEWESNGQPENNYKTTPPVLDSDGSFFLYSKLTVDKSRWQQGNVFSCSVLHEALHAHTTRKELSLSP light: DIVMTQSPATLSLSPGERATLSCTTSQSVYHENWLSWFQQKPGQPPKLLIYWASTLAYGVPSRFSGSGSGTDFTLTISSLQPEDAATYYCAGGYGGGRYAFGQGTKVEIKRTVAAPSVFIFPPSDEQLKSGTASVVCLLNNFYPREAKVQWKVDNALQSGNSQESVTEQDSKDSTYSLSSTLTLSKADYEKHKVYACEVTHQGLSSPVTKSFNRGEC | 0.021 | 0.04 | 14.7 | 0.002 | 46 | 30 | 0.32 | 450

More lines, now with the values ahead:

Row | KD fold for humanFcgRs (SG1 = 1) [1] [fold] | KD fold for humanFcgRs (SG1 = 1) [2] [fold] | KD fold for humanFcgRs (SG1 = 1) [3] [fold] | KD fold for humanFcgRs (SG1 = 1) [4] [fold] | Kd [5] [µM] | Kd [6] [µM] | Kd [7] [µM] | Kd [8] [µM] | Binder
3 | 0.019 | 0.05 | 15.2 | 0.002 | 52 | 24 | 0.31 | 470 | MS103240H795-TT93/M103202L1045-SK1 (antibody, copies: 2 + 2) heavy: QVQLVESGGGLVQPGGSLRLSCAVSGIDLSHDDISWVRQAPGKGLEWVSIISYAGSTYYASWAKGRLTISKDTSKNQVVLTMTNMDPVDTATYYCARGVPAYSHGGDLWGQGTLVTVSSASTKGPSVFPLAPSSKSTSGGTAALGCLVKDYFPEPVTVSWNSGALTSGVHTFPAVLQSSGLYSLSSVVTVPSSSLGTQTYICNVNHKPSNTKVDKKVEPKSCDKTHTCPPCPAPEYLGGDSVFLFPPKPKDVLMISRTPEVTCVVIDVSHEDPEVKFNWYVDGVEVHNAKTKPREEQYNSTYRVVSVLPVLHRDWLNGKEYKCKVSNKALPKPIEKTISKAKGQPREPQVYTLPPSREEMTKNQVSLTCLVKGFYPSDIAVEWESNGQPENNYKTTPPVLDSDGSFFLYSKLTVKKSRWQQGNVFSCSVLHEALHAHTTRKELSLSP light: DIVMTQSPATLSLSPGERATLSCTTSQSVYHENWLSWFQQKPGQPPKLLIYWASTLAYGVPSRFSGSGSGTDFTLTISSLQPEDAATYYCAGGYGGGRYAFGQGTKVEIKRTVAAPSVFIFPPSDEQLKSGTASVVCLLNNFYPREAKVQWKVDNALQSGNSQESVTEQDSKDSTYSLSSTLTLSKADYEKHKVYACEVTHQGLSSPVTKSFNRGEC
4 | 0.024 | 0.06 | 16.8 | 0.001 | 40 | 20 | 0.28 | 490 | MS103240H795-TT92/M103202L1045-SK1 (antibody, copies: 2 + 2) heavy: QVQLVESGGGLVQPGGSLRLSCAVSGIDLSHDDISWVRQAPGKGLEWVSIISYAGSTYYASWAKGRLTISKDTSKNQVVLTMTNMDPVDTATYYCARGVPAYSHGGDLWGQGTLVTVSSASTKGPSVFPLAPSSKSTSGGTAALGCLVKDYFPEPVTVSWNSGALTSGVHTFPAVLQSSGLYSLSSVVTVPSSSLGTQTYICNVNHKPSNTKVDKKVEPKSCDKTHTCPPCPAPEYLGGDSVFLFPPKPKDVLMISRTPEVTCVVIDVSHEDPEVKFNWYVDGVEVHNAKTKPREEQYNSTYRVVSVLPVLHRDWLNGKEYKCKVSNKALPKPIEKTISKAKGQPREPQVYTLPPSREEMTKNQVSLTCLVKGFYPSDIAVEWESNGQPENNYKTTPPVLDSDGSFFLYSKLTVKKSRWQQGNVFSCSVMHEALHAHYTRKELSLSP light: DIVMTQSPATLSLSPGERATLSCTTSQSVYHENWLSWFQQKPGQPPKLLIYWASTLAYGVPSRFSGSGSGTDFTLTISSLQPEDAATYYCAGGYGGGRYAFGQGTKVEIKRTVAAPSVFIFPPSDEQLKSGTASVVCLLNNFYPREAKVQWKVDNALQSGNSQESVTEQDSKDSTYSLSSTLTLSKADYEKHKVYACEVTHQGLSSPVTKSFNRGEC

Source: patent US20200317768A1 (published 2020)
